The results in this text go back to article PMC4739419, “Mutations in the nucleotide binding and hydrolysis domains of Helicobacter pylori MutS2 lead to altered biochemical activities and inactivation of its in vivo function” (BMC Microbiology, 2016).

Where two headings read alike, the source gives them in different places.

Data set [1] addresses Holliday junction. The experiment in a line: Electrophoretic mobility shift assay (EMSA). Particulars: for Kd: read-out: DNA binding affinity (dissociation constant). In kind it is binding. The protocol:
(§1) Fig. 5 Effect of nucleotide cofactors on DNA binding activity of HpMutS2 and mutants. Electrophoretic mobility shift assays were performed by incubating radiolabeled DNA substrates (0.16 nM) with increasing concentrations of proteins as described in Methods section. Nucleotides (1 mM) were added separately to the reaction mixtures. After incubation of 30 min on ice, the reaction mixtures were electrophoresed on native PAGE (8 %) at 4 °C. (a, panel 1–6) Interaction of HpMutS2 and mutants with single-stranded DNA. b-g Plots of percentage of bound DNA substrate (ssDNA and Holliday junction) versus protein concentration. The percentage binding was calculated by measuring the depletion in substrate DNA considering DNA without protein as 100 %. Error bars represent standard deviation from two or more different experiments. Schematic representation of DNA substrates used are shown at the left side of figures
(§2) Radiolabeled DNA substrates (0.16 nM) were incubated with increasing concentrations of HpMutS2 and mutants in buffer A with 1X BSA (0.1 μg/μl). ATP, ADP, and ATPγS (1 mM each) were added separately to the reaction mixture. The NaCl concentration was maintained to 110 mM by adding storage buffer C to the reaction mixture. After incubation of 30 min on ice, the reaction mixtures were electrophoresed on native PAGE (8 %) at 4 °C. The gels were transferred on to Whatman 3 mm paper and dried under vacuum at 80 °C for 45 min. The gels were visualized by phosphorimaging and quantified using Image Gauge (Version 3.0). The dissociation constants were determined by non-linear regression analysis and calculated by plotting the percentage of bound DNA versus concentration of protein using “One site - Specific binding with Hill slope” equation of the GraphPad Prism 5 software.

Data set [2] addresses Single-stranded DNA. The experiment in a line: Electrophoretic mobility shift assay (EMSA). Type of data set: binding. The settings on record: for Kd: read-out: DNA binding affinity (dissociation constant). The protocol:
as §1, §2
On the technique in general: A gel shift assay detects complexes by their altered migration in electrophoresis.

For data set [3], the system named is Holliday junction. The experiment in a line: Nuclease assay (urea-PAGE). In kind it is biochemical. Here is the method:
(§3) Fig. 6 Effect of nucleotide cofactors on nuclease activity of HpMutS2 and mutants. Plots showing time dependent depletion of substrate DNA (a, b, c) Single-stranded DNA and d, e, f Holliday junction. DNA substrates (1 nM) were incubated with HpMutS2 and mutants (150 nM) at 37 °C. Reactions aliquots were removed at 0, 15, 30, 60, 90, and 120 min. The reactions were stopped using (50 mM EDTA + formamide dye) and the products were electrophoresed on urea-PAGE (15 %). The percentage reduction in substrate was calculated by considering DNA without protein as 100 %. Error bars represent standard deviation from two or more different experiments. (g, panel 1–6) Time dependent cleavage of Holliday junction by HpMutS2 and mutants. Reactions were performed as described in (A-F). Reactions aliquots were removed at 0, 15, 30, 60, 90, and 120 min
(§4) Radiolabeled DNA substrates were incubated with HpMutS2 and mutants in buffer D (50 mM Tris pH 8.0, 50 mM NaCl, 1 mM DTT, and 5 mM MgCl2). ATP, ADP, and ATPγS (1 mM each) were added separately to the reaction mixtures. 20 μl reaction aliquots were reomoved at 0, 15, 30, 60, 90, and 120 min. Reactions were stopped by adding EDTA (50 mM) + formammide dye (98 % formamide, 0.1 % bromophenol blue and 0.1 % xylene cyanol). The DNA substrates were denatured at 95 °C for 15 min and the reaction mixtures were separated on denaturing polyacrylamide gel (15 %) containing urea (7 M). The results were visualized and analysed as described earlier. DNA cleavage rates were estimated by dividing the total product formed (pM) in linear range of enzymatic activity by corresponding incubation time (min).

The test system of data set [4] is Single-stranded DNA. The experiment in a line: Nuclease assay (urea-PAGE). In kind it is biochemical. Here is the method: as §3, §4
Another data set relates to chymotrypsin. Put plainly: Limited proteolysis with chymotrypsin. Particulars: 37 °C. Here is the method:
(§5) Fig. 4 Nucleotide and mutation induced conformational changes in HpMutS2. a Limited proteolysis. Proteins (4 μM) either free or pre-incubated with nucleotides (1 mM) were incubated with chymotrypsin (1.25 ng) for 30 min at 37 °C. All proteolysis reactions were performed in 1X buffer A lacking magnesium. Reactions were stopped by adding a protease inhibitor cocktail and the products were separated on SDS-PAGE (10 %). Lane M: Molecular weight marker. b Thermal stability profiles of wild-type HpMutS2, HpMutS2-G338R, and HpMutS2-E413A. Proteins (1 μM) dialyzed in 50 mM Tris-Cl and 100 mM NaCl were subjected to thermal denaturation and spectra were recorded at 222 nm using Jasco-815 spectropolarimeter
HpMutS2 (4 μM) was incubated with chymotrypsin (1.25 ng) or in buffer A lacking magnesium at 37 °C for 30 min. The reactions were stopped by addition of protease inhibitor cocktail (Sigma) and the proteolyzed products were separated on SDS-PAGE (10 %). Nucleotide cofactors (1 mM) were pre-incubated with the proteins for 15 min at 37 °C before addition of chymotrypsin. The heat denaturation of proteins was performed by heating them at 95 °C for 10 min. All the reactions were performed in 1X buffer A. Protein bands were detected by staining with Coomassie Brilliant Blue.

Data set [5] can be described thus: Thermal denaturation monitored by CD at 222 nm. Type of data set: physicochemical. The settings on record: higher temperatures. The protocol:
as §5
Freshly prepared proteins were dialyzed twice in buffer B for 4–6 h with at least two changes of the buffer. Far-UV CD spectra of proteins (1 μM) were obtained using a Jasco-815 spectropolarimeter equipped with a Peltier stage (Japan Spectroscopic Co., Japan) at 25 °C. The spectra were recorded between 200–300 nm with 20 mdeg sensitivity at a scan speed of 50 nm using 2 mm path length cuvette with a bandwidth of 2 nm. Control titrations were performed and all the CD spectra were corrected by subtracting control spectra. Thermal denaturation of the proteins was monitored at single wavelength (222 nm) by increasing temperature from 25 °C-80 °C. The percentage of unfolded protein was calculated by considering the protein at 25 °C as 100 % folded.

The mark [6] stands for this setting: No nucleotide, DNA 1 nM, protein 150 nM, 37 °C.

B1: HpMutS2-G338R (protein)
chain: MSDAPKRSLNPTLMMNNNNTPPKPLEESLDLKEFIALFKTFFAKERDTIALENDLKQTFTYLNEVDAIGLPTPKSVKESDLIIIKLTKLGTLHLDEIFEIVKRLHYIVVLQNAFKTFTHLKFHERLNAIVLPPFFNDLIALFDDEGKIKQGANATLDALNESLNRLKKESVKIIHHYARSKELAPYLVDTQSHLKHGYECLLLKSGFSGAIKGVVLERSANGYFYLLPESAQKIAQKIAQIGNEIDCCIVEMCQTLSHSLQKHLLFLKFLFKEFDFLDSLQARLNFAKAYNLEFVMPSFTQKKMILENFSHPILKEPKPLNLKFEKSMLAVTGVNAGRKTMLLKSLLSAAFLSKHLIPMKINAHHSIIPYFKEIHAIINDPQNSANNISTFAGRMKQFSALLSKENMLLGVDEIELGTDADEASSLYKTLLEKLLKQNNQIIITTHHKRLSVLMAENKEVELLAALYDEEKERPTYTFLKGVIGKSYAFETALRYGVPHFLIEKAKTFYGEDKEKLNVLIENSSALERELKQKNEHLENALKEQEYLKNAWLLEMEKQKEIFHNKKLELEKSYQQALNILKSEVASKDTSSMHKEIHKASEILSKHKTNQEIPQIITNFQANEKARYKNESVLIVQILDKGYYWIETELGMRLKAHGSLLKKIQKPPKNKFKPPKTTIPKPKEASLRLDLRGQRSEEALDLLDAFLNDALLGGFEEVLICHGKGSGILEKFVKEFLKNHPKVVSFSDAPINLGGSGVKIVKL
As to B1, the Kd worked out at 34 ± 5.31 nM at Holliday junction [1] (+ ADP 1 mM); 32 ± 4.34 nM at Holliday junction [1] (+ ATP 1 mM); 21.4 ± 0.93 nM at Holliday junction [1] (No nucleotide); 23.9 ± 2.91 nM at Single-stranded DNA [2] (+ ADP 1 mM); 30.7 ± 3.43 nM on Single-stranded DNA [2] (+ ATP 1 mM); 32.4 ± 3.32 nM at Single-stranded DNA [2] (No nucleotide). The “fold reduced affinity compared to wild-type” value in the data set with Holliday junction [1] (no nucleotide) and with Single-stranded DNA [2] (no nucleotide) was ~ 1.5 fold in each case. The DNA cleavage rate was found to be 41.59 ± 9.53 pM/min in the data set with Holliday junction [3] (setting [6]) and 40.19 ± 8.73 pM/min in the data set with Single-stranded DNA [4] (setting [6]). For the same molecule, the “fold elevated nuclease activity compared to wild-type” value with Holliday junction [3] (no nucleotide) and with Single-stranded DNA [4] (no nucleotide) was ~ 1.6 fold throughout. In addition, in the data set with chymotrypsin (pre-incubation with ADP, ATP or ATPγS 1 mM, 15 min), the “effect of nucleotide pre-incubation on proteolysis” value is reported as “only a slight effect”. In the data set with chymotrypsin (protein 4 μM, chymotrypsin 1.25 ng, 30 min, no nucleotide), the “susceptibility to proteolysis compared to the wild-type protein” value is on record as “slightly more susceptible to proteolysis”. The “thermal stability compared to the other variants” value in data set [5] is “more stable at up to 80 °C”.
